In doi:10.1101/2023.11.17.567546 one finds binding data, which are given here for one sequence.

Data set [1] deals with Hfq (UniProt P0A6X3). As to the kind of experiment: EMSA.
The target in data set [2] is Hfq (UniProt P0A6X3). The data set can be described thus: lead acetate footprinting.

Hfq, sequence (P0A6X3 whole entry): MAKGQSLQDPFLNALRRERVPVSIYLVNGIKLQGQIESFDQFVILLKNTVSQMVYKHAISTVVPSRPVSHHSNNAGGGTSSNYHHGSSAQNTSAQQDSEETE

For “GCGCCAACGUCGCAUCUGGUUCUCAUCAUCGCGUAAUAUUGAUGAAACCUGCGGCAUCCUUCUUCUAUUGUGGAUGCUUUACAAUGAUUAAAAAAGCUUCGCUGCUGACGGCGUGUUCCGUCACGGCAUUUUCCGCUUGGGCACAGGAUACCAGCCCGGAUACUCUCGUCGUUACUGCUAACCGUUUUGAACAGCCGCGCAGCACUGUGCUUGCACCAACCACCGUUGUGACCCGUCAGGAUAU [btuB mRNA -80 to +161]”, the binding result with Hfq [1] and with Hfq [2] was “binds” throughout.
